Experimental findings from the supplement of paper PMC10126150 are described below.

The data set deals with ATP. In words: switch fluorescence ratio, 500 uM ATP over buffer (Cy3 cluster intensity, sum of 5 cycles each) (fold (ratio)); higher = stronger signal-on switching upon ATP binding; sequences stand for … in TCGTCGGCAGCGTCAGATGTGTATAAGAGACAGTTTTTTTTTTTTTTTTTTTTTTTTT…TC. To be noted: aptamer strand: ATP DNA aptamer (quencher-CACCTGGGGGAGTATTGCGGAGGAAGG + anchor), 100 nM annealed; ATP concentration: 500 uM. In short, it runs like this:
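After annealing to 100 nM quencher-labelled ATP aptamer, Cy3-labelled switching-strand clusters on a modified Illumina MiSeq flow-cell were imaged in selection buffer. A second image followed after 15 min with 500 uM ATP at 22 °C, and five such buffer/ATP cycles were done, each separated by NaOH stripping and re-annealing. The fluorescence ratio, averaged per switch-domain sequence, is summed target-cycle over summed buffer-cycle Cy3 intensity per cluster, with clusters outside 100-1000 RFU excluded.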

± gives the standard deviation of the averaged measurements.
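Also: ATP exposure 15 min at 22 °C before imaging.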

Consider AAGGGGGGCA, for which the switch fluorescence ratio is 0.966 ± 0.037.

Turning to AAGGGGGGTA, the switch fluorescence ratio was determined as 0.997 ± 0.037. As for AAGGGGGTCA, the switch fluorescence ratio turned out to be 1.016 ± 0.0063. For AAGGGGGTGA, the switch fluorescence ratio came to 1.01 ± 0.025. As to AAGGGGTCTC, the switch fluorescence ratio came to 0.998 ± 0.021.

With AAGGGGTGAC, the switch fluorescence ratio came out at 0.977 ± 0.041. As to AAGGGGTGG, the switch fluorescence ratio turned out to be 1.02 ± 0.029. Take AAGGGGTTAG: the switch fluorescence ratio stood at 0.975 ± 0.016. On to AAGGGGTTT, for which the switch fluorescence ratio was found to be 1.03 ± 0.065.

As to AAGGGGTTTT, the switch fluorescence ratio was 1 ± 0.036. The same measure for AAGGGTATGG: 0.9729 ± 0.0076. In the case of AAGGGTATTT, the switch fluorescence ratio was found to be 1.01 ± 0.028.

AAGGGTCACC: the switch fluorescence ratio was found to be 0.999 ± 0.031. The same measure for AAGGGTGCTC: 1.03 ± 0.047; for AAGGGTGTAA: 1.01 ± 0.069. In the case of AAGGGTTATG it was 0.994 ± 0.027; in that of AAGGGTTGGC, 0.983 ± 0.094.

With AAGGGTTTCT, the switch fluorescence ratio stood at 1.02 ± 0.038. In the case of AAGGGTTTGT it was 0.986 ± 0.017; in that of AAGGTAATGG, 1.02 ± 0.014; in that of AAGGTACCAG, 1.03 ± 0.036.

Regarding AAGGTAGCTT, the switch fluorescence ratio was 1.011 ± 0.0094.

AAGGTAGGCC: the switch fluorescence ratio worked out at 0.96 ± 0.016.

For the sequence AAGGTATTGA, the switch fluorescence ratio is 0.9782 ± 0.0046. Turning to AAGGTATTTT, the switch fluorescence ratio was 1.01 ± 0.037.

Turning to AAGGTCGGGT, the switch fluorescence ratio is 1.01 ± 0.043. Turning to AAGGTGAATT, the switch fluorescence ratio is 1.06 ± 0.021.

Consider AAGGTGGGGT, for which the switch fluorescence ratio amounted to 1.03 ± 0.026.

In the case of AAGGTGGTTT, the switch fluorescence ratio was determined as 0.957 ± 0.048. Turning to AAGGTGTTCG, the switch fluorescence ratio is 0.957 ± 0.016. In the case of AAGGTTAAGT it was 1.02 ± 0.016; in that of AAGGTTAATA, 0.976 ± 0.08; in that of AAGGTTACGC, 1.05 ± 0.024. In the case of AAGGTTATTG it was 1.026 ± 0.0088. Turning to AAGGTTGGAT, the switch fluorescence ratio worked out at 0.987 ± 0.012. With AAGGTTGGTT, the switch fluorescence ratio worked out at 0.983 ± 0.068. The same measure for AAGGTTTCGT: 1 ± 0.024; for AAGGTTTTCG: 1.01 ± 0.026; for AAGGTTTTGC: 0.99 ± 0.058. In the case of AAGTAAATTT, the switch fluorescence ratio worked out at 1.0226 ± 0.0004.

AAGTAACGCG: the switch fluorescence ratio was found to be 0.977 ± 0.013. Consider AAGTAACGTC, for which the switch fluorescence ratio amounted to 1.041 ± 0.01. In the case of AAGTAAGGGG it was 0.955 ± 0.054. The same measure for AAGTAATGGA: 1.04 ± 0.06; for AAGTACGACT: 1.1 ± 0.016.

Regarding AAGTACGCGG, the switch fluorescence ratio was 1.01 ± 0.046. The same measure for AAGTACGGCC: 1.16 ± 0.025; for AAGTACTCCA: 1.335 ± 0.0082.

For the sequence AAGTAGGGGA, the switch fluorescence ratio turned out to be 1.02 ± 0.021.

Consider AAGTAGGTAG, for which the switch fluorescence ratio was determined as 0.9786 ± 0.002. Take AAGTAGTCGT: the switch fluorescence ratio turned out to be 1.01 ± 0.05. For AAGTATGCTT, the switch fluorescence ratio came to 1.01 ± 0.021.

In the case of AAGTCAAAGT, the switch fluorescence ratio came out at 1.03 ± 0.051. In the case of AAGTCAGAGC, the switch fluorescence ratio was determined as 0.97 ± 0.097.

In the case of AAGTCAGCGA, the switch fluorescence ratio is 1.02 ± 0.014. The same measure for AAGTCAGTTG: 1.02 ± 0.059. The same measure for AAGTCATTAA: 0.99 ± 0.031; for AAGTCCACAC: 1.05 ± 0.041.

For the sequence AAGTCCGGCA, the switch fluorescence ratio came to 1 ± 0.037. In the case of AAGTCCGTTG it was 1.009 ± 0.0083; in that of AAGTCCGTTT, 1.02 ± 0.044; in that of AAGTCCTGCC, 1.26 ± 0.081. In the case of AAGTCCTTGT, the switch fluorescence ratio was 1.02 ± 0.013.

Regarding AAGTCGAGTG, the switch fluorescence ratio came to 0.994 ± 0.075. Regarding AAGTCGCGTT, the switch fluorescence ratio was determined as 0.991 ± 0.0024. The same measure for AAGTCGGGAC: 1.08 ± 0.039; for AAGTCGTCGA: 1.028 ± 0.0025.

Regarding AAGTCTCGGG, the switch fluorescence ratio was 0.995 ± 0.0026. As for AAGTGAATAT, the switch fluorescence ratio turned out to be 1.012 ± 0.0095.

With AAGTGATATA, the switch fluorescence ratio was 1.01 ± 0.017.

Consider AAGTGATGGT, for which the switch fluorescence ratio stood at 0.9999 ± 0.0069. In the case of AAGTGCAGCC it was 1.01 ± 0.023. The same measure for AAGTGCATGG: 0.986 ± 0.036; for AAGTGCCGAG: 0.989 ± 0.027; for AAGTGCGGCG: 1.03 ± 0.029. AAGTGGAATT: the switch fluorescence ratio was 1.03 ± 0.018. In the case of AAGTGGATCT it was 0.988 ± 0.078. In the case of AAGTGGATTG it was 1.003 ± 0.01.
